For experiment [1], the target named is cross-linked His-CAhex, 6-His-CA(A14C/E45C/W184A/M185A) (HIV-1). The experiment can be described thus: SPR; Reichert 4-SPR; cross-linked His-CAhex immobilised on an NTA chip via the C-terminal His-tag; peptides 3.9 µM to 2 mM; 0.01 M HEPES pH 7.4, 0.15 M NaCl, 0.05% Surfactant P20; Scrubber 2.0, simple kinetic model.
In experiment [2] the target is Cross-linked His-CAhex: disulfide-stabilized hexamer of 6-His-CA(A14C/E45C/W184A/M185A) (HIV-1). The experiment can be described thus: SPR; Reichert 4-SPR; cross-linked His-CAhex immobilised on an NTA chip via the C-terminal His-tag; peptides 3.9 μM to 2 mM; 0.01 M HEPES pH 7.4, 0.15 M NaCl, 0.05% v/v Surfactant P20; simple kinetic model.

The term Kd denotes the concentration at which binding is half-saturated. Higher therefore signals a looser complex. In experiment [1], GPLLPGQSFGGPSVS [SEC24C228-242 peptide] registered a Kd of 1.07 mM. The same measure, in the same setting: the value for NSPSGVFTFGANSST [NUP1531409-1423 peptide] was 0.131 mM. In experiment [2], GPLLPGQSFGGPSVS [SEC24C_(228-242) 15-mer FG peptide] came in with a Kd of 1.07 mM.

(Values after publication PMC9537594.)
